Experimental data reported in patent US20030077290A1 (PHADIA, published 2003).

Target: basophil-bound IgE of a grass pollen allergic patient
Assay: cell-based or functional assay

**Q.** GKATTEEQKLIEDINASFRAAMATTANVPPADK [rPhl p 6 aa 1-33] was tested. Which “reduction of histamine release compared to complete rPhl p 6” value did it give?
**A.** ~1000 fold
